Data reported in patent publication US20250152717A1 (AFFINI T THERAPEUTICS, published 2025).

Target: RAB7B-derived peptide presented by HLA-A11 (human)
Assay: cell-based or functional assay
Parameters: unit not given beside the values

B1: TCR 11N4A (TCR, V domains shown)
V domain 1: DQQVKQNSPSLSVQEGRISILNCDYTNSMFDYFLWYKKYPAEGPTFLISISSIKDKNEDGRFTVFLNKSAKHLSLHIVPSQPGDSAVYFCAASGVSGNTPLVFGKGTRLSVIA
V domain 2: GVTQTPRYLIKTRGQQVTLSCSPISGHRSVSWYQQTPGQGLQFLFEYFSETQRNKGNFPGRFSGRQFSNSRSEMNVSTLELGDSALYLCASSVGTVEQYFGPGTRLTVTE
In the case of B1, the “EC50 of the peptide dose-response of CD137 expression, sort-purified TCR 11N4A-transduced T cells” value is reported as ~35.
